The record followed here is the Human Domainome abundance scans (Beltran et al. 2025).

± gives the uncertainty stated by the source.

B1: Steroid hormone receptor ERR2, residues 100 to 176; numbered along this chain, O95718 (parent)
chain: KRLCLVCGDIASGYHYGVASCEACKAFFKRTIQGNIEYSCPATNECEITKRRRKSCQACRFMKCLKVGMLKEGVRLD

Variants of B1 are the subject of this data set. Put plainly: abundance fitness (aPCA) (normalised: wild type 0, dead -1); higher = more abundant; growth selection in yeast, the domain comes from the species named. The following applies: Homo sapiens.
In the case of KRLCLVCGDIASGYHYGVASCEACKAFFKRTIQGNIEYSCPATNECEITKRRRHSCQACRFMKCLKVGMLKEGVRLD [K54H], the abundance fitness worked out at 0.144 ± 0.11.

Consider KRLCLVCGDIASGYHYGVASCEACKAFFKRTIQGNIEYSCPATNECEITKRRRWSCQACRFMKCLKVGMLKEGVRLD [K54W], for which the abundance fitness was -0.05 ± 0.058.

With KRLCLVCGDIASGYHYGVASCEACKAFFKRTIQGNIEYSCPATNECEITKRRRFSCQACRFMKCLKVGMLKEGVRLD [K54F], the abundance fitness is -0.243 ± 0.12.

Take KRLCLVCGDIASGYHYGVASCEACKAFFKRTIQGNIEYSCPATNECEITKRRRASCQACRFMKCLKVGMLKEGVRLD [K54A]: the abundance fitness is 0.009 ± 0.055.

As to KRLCLVCGDIASGYHYGVASCEACKAFFKRTIQGNIEYSCPATNECEITKRRRTSCQACRFMKCLKVGMLKEGVRLD [K54T], the abundance fitness was -0.024 ± 0.066.

As for KRLCLVCGDIASGYHYGVASCEACKAFFKRTIQGNIEYSCPATNECEITKWRRKSCQACRFMKCLKVGMLKEGVRLD [R51W], the abundance fitness was 0.022 ± 0.14.

For KRLCLVCGDIASGYHYGVASCEACKAFFKRTIQGNIEYSCPATNECEITKLRRKSCQACRFMKCLKVGMLKEGVRLD [R51L], the abundance fitness is -0.097 ± 0.069.

Consider KRLCLVCGDIASGYHYGVASCEACKAFFKRTIQGNIEYSCPATNECEITKHRRKSCQACRFMKCLKVGMLKEGVRLD [R51H], for which the abundance fitness is -0.08 ± 0.084.

Consider KRLCLVCGDIASGYHYGVASCEACKAFFKRTIQGNIEYSCPATNECEITKMRRKSCQACRFMKCLKVGMLKEGVRLD [R51M], for which the abundance fitness is 0.173 ± 0.1.

On to KRLCLVCGDIASGYHYGVASCEACKAFFKRTIQGNIEYSCPATNECEITKSRRKSCQACRFMKCLKVGMLKEGVRLD [R51S], for which the abundance fitness is -0.14 ± 0.066.

For the variant KRLCLVCGDIASGYHYGVASCEACKAFFKRTIQGNIEYSCPATNECEITKTRRKSCQACRFMKCLKVGMLKEGVRLD [R51T], the abundance fitness is -0.04 ± 0.064.

On to KRLCLVCGDIASGYHYGVASCEACKAFFKRTIQGNIEYSCPATNECEITKQRRKSCQACRFMKCLKVGMLKEGVRLD [R51Q], for which the abundance fitness stood at 0.119 ± 0.1.

Turning to KRLCLVCGDIASGYHYGVASCEACKAFFKRTIQGNIEYSCPATNECEITKKRRKSCQACRFMKCLKVGMLKEGVRLD [R51K], the abundance fitness was -0.002 ± 0.1.

KRLCLVCGDIASGYHYGVASCEACKAFFKRTIQGNIEYSCPATNECEITKFRRKSCQACRFMKCLKVGMLKEGVRLD [R51F]: the abundance fitness is -0.161 ± 0.096.

Regarding KRLCLVCGDIASGYHYGVASCEACKAFFKRTIQGNIEYSCPATNECEITKYRRKSCQACRFMKCLKVGMLKEGVRLD [R51Y], the abundance fitness is -0.384 ± 0.13.

On to KRLCLVCGDIASGYHYGVASCEACKAFFKRTIQGNIEYSCPATNECEITKNRRKSCQACRFMKCLKVGMLKEGVRLD [R51N], for which the abundance fitness is -0.072 ± 0.087.

Regarding KRLCLVCGDIASGYHYGVASCEACKAFFKRTIQGNIEYSCPATNECEITKGRRKSCQACRFMKCLKVGMLKEGVRLD [R51G], the abundance fitness is 0.033 ± 0.11.

Turning to KRLCLVCGDIASGYHYGVASCEACKAFFKRTIQGNIEYSCPATNECEITKIRRKSCQACRFMKCLKVGMLKEGVRLD [R51I], the abundance fitness is -0.269 ± 0.11.

Turning to KRLCLVCGDIASGYHYGVASCEACKAFFKRTIQGNIEYSCPATNECEITKRDRKSCQACRFMKCLKVGMLKEGVRLD [R52D], the abundance fitness is -0.242 ± 0.23.

Consider KRLCLVCGDIASGYHYGVASCEACKAFFKRTIQGNIEYSCPATNECEITKRARKSCQACRFMKCLKVGMLKEGVRLD [R52A], for which the abundance fitness was -0.037 ± 0.054.

In the case of KRLCLVCGDIASGYHYGVASCEACKAFFKRTIQGNIEYSCPATNECEITKRYRKSCQACRFMKCLKVGMLKEGVRLD [R52Y], the abundance fitness is -0.452 ± 0.21.

On to KRLCLVCGDIASGYHYGVASCEACKAFFKRTIQGNIEYSCPATNECEITKRMRKSCQACRFMKCLKVGMLKEGVRLD [R52M], for which the abundance fitness was -0.084 ± 0.085.

Take KRLCLVCGDIASGYHYGVASCEACKAFFKRTIQGNIEYSCPATNECEITKRNRKSCQACRFMKCLKVGMLKEGVRLD [R52N]: the abundance fitness was -0.156 ± 0.15.

On to KRLCLVCGDIASGYHYGVASCEACKAFFKRTIQGNIEYSCPATNECEITKRFRKSCQACRFMKCLKVGMLKEGVRLD [R52F], for which the abundance fitness is -0.056 ± 0.13.

In the case of KRLCLVCGDIASGYHYGVASCEACKAFFKRTIQGNIEYSCPATNECEITKRLRKSCQACRFMKCLKVGMLKEGVRLD [R52L], the abundance fitness was 0.099 ± 0.054.

In the case of KRLCLVCGDIASGYHYGVASCEACKAFFKRTIQGNIEYSCPATNECEITKRSRKSCQACRFMKCLKVGMLKEGVRLD [R52S], the abundance fitness is -0.155 ± 0.068.

Regarding KRLCLVCGDIASGYHYGVASCEACKAFFKRTIQGNIEYSCPATNECEITKRVRKSCQACRFMKCLKVGMLKEGVRLD [R52V], the abundance fitness is -0.003 ± 0.057.

For KRLCLVCGDIASGYHYGVASCEACKAFFKRTIQGNIEYSCPATNECEITKRCRKSCQACRFMKCLKVGMLKEGVRLD [R52C], the abundance fitness is -0.86 ± 0.38.

As for KRLCLVCGDIASGYHYGVASCEACKAFFKRTIQGNIEYSCPATNECEITKRERKSCQACRFMKCLKVGMLKEGVRLD [R52E], the abundance fitness was 0.136 ± 0.051.

As for KRLCLVCGDIASGYHYGVASCEACKAFFKRTIQGNIEYSCPATNECEITKRGRKSCQACRFMKCLKVGMLKEGVRLD [R52G], the abundance fitness is 0.062 ± 0.045.

Consider KRLCLVCGDIASGYHYGVASCEACKAFFKRTIQGNIEYSCPATNECEITKRPRKSCQACRFMKCLKVGMLKEGVRLD [R52P], for which the abundance fitness was -0.339 ± 0.1.

In the case of KRLCLVCGDIASGYHYGVASCEACKAFFKRTIQGNIEYSCPATNECEITKRTRKSCQACRFMKCLKVGMLKEGVRLD [R52T], the abundance fitness was 0.039 ± 0.069.

Take KRLCLVCGDIASGYHYGVASCEACKAFFKRTIQGNIEYSCPATNECEITKRQRKSCQACRFMKCLKVGMLKEGVRLD [R52Q]: the abundance fitness came out at 0.128 ± 0.069.

As to KRLCLVCGDIASGYHYGVASCEACKAFFKRTIQGNIEYSCPATNECEITKRHRKSCQACRFMKCLKVGMLKEGVRLD [R52H], the abundance fitness was -0.627 ± 0.32.

With KRLCLVCGDIASGYHYGVASCEACKAFFKRTIQGNIEYSCPATNECEITKRWRKSCQACRFMKCLKVGMLKEGVRLD [R52W], the abundance fitness was -0.043 ± 0.066.

In the case of KRLCLVCGDIASGYHYGVASCEACKAFFKRTIQGNIEYSCPATNECEITKRKRKSCQACRFMKCLKVGMLKEGVRLD [R52K], the abundance fitness was -0.115 ± 0.086.
